This is an account of results in publication PMC4499147, “Modulation of LSD1 phosphorylation by CK2/WIP1 regulates RNF168-dependent 53BP1 recruitment in response to DNA damage” (Nucleic Acids Research, 2015).

Experiment [1] addresses T1, bacterially produced HIS-RNF168 (human, UniProt Q8IYW5 1-571).
T1 construct: E3 ligase RNF168, human; the bacterial construct is not described; source: bacterially produced
The experiment in a line: pull-down; GST fusion (1 μg) with HIS-tagged fusion (1 μg) in 500 μl NETN buffer (20 mM Tris-HCl pH 8.0, 0.15 M NaCl, 1 mM EDTA, 0.5% NP-40) at 4°C overnight; Glutathione-Sepharose beads. To be noted: both partners purified.

Experiment [2] concerns the target bacterially produced HIS-LSD1 (human, UniProt O60341 1-852). The experiment is described as above. The settings on record: both partners purified.

B1: bacterially produced GST-53BP1-KBD (domain or fragment, human, UniProt Q12888 1234-1616, looked up)
chain: HVLHRHMRTIREVRTLVTRVITDVYYVDGTEVERKVTEETEEPIVECQECETEVSPSQTGGSSGDLGDISSFSSKASSLHRTSSGTSLSAMHSSGSSGKGAGPLRGKTSGTEPADFALPSSRGGPGKLSPRKGVSQTGTPVCEEDGDAGLGIRQGGKAPVTPRGRGRRGRPPSRTTGTRETAVPGPLGIEDISPNLSPDDKSFSRVVPRVPDSTRRTDVGAGALRRSDSPEIPFQAAAGPSDGLDASSPGNSFVGLRVVAKWSSNGYFYSGKITRDVGAGKYKLLFDDGYECDVLGKDILLCDPIPLDTEVTALSEDEYFSAGVVKGHRKESGELYYSIEKEGQRKWYKRMAVILSLEQGNRLREQYGLGPYEAVTPLTKAAD
notes: The limits 1234-1616 are printed for the 53BP1-KBD cDNA clone put into pcDNA3.0; the bacterial construct itself is not described; source: bacterially produced
As to B1, the binding result in experiment [1] and in experiment [2] was “binds” in each case.
